Measured values published in patent US20200040069A1 (INDIANA UNIVERSITY RESEARCH AND TECHNOLOGY, published 2020).

Molecular target: T1, rat antibody hybridoma clone M7/1 (EMAP II neutralizing M7/1 antibody)
T1 construct: Rat monoclonal IgG from a hybridoma; also called rat monoclonal neutralizing antibody M7
Experiment: description in the sequence table

T1 sequence (VH, as listed by the source, chain 1 of 2): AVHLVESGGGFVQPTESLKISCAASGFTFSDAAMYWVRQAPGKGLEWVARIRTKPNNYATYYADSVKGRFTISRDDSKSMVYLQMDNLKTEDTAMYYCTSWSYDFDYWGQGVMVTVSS
T1 sequence (VL, as listed by the source, chain 2 of 2): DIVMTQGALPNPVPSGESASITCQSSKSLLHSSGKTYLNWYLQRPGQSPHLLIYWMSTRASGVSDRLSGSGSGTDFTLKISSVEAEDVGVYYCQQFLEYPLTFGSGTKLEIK

binding result: binds
B1: Peptide 2 (QQSIAGSADSKPIDVSR) (peptide)
peptide: QQSIAGSADSKPIDVSR
notes: Synthetic peptide from human EMAP II; also called ID NO; 12
